Read-outs that look alike come from different tables or passages of the source.
Measured: enzymatic_activity

VCP/p97: 3D (S13D, S282D, T761D) phosphomimetic
increases: phosphorylation at S13 | phosphorylation at S282 | phosphorylation at T761

— article PMC6859904
